Experimental data reported in patent US11471462B2, “Compositions and methods for detecting and treating diabetes” (THE BROAD INSTITUTE, INC., priority 2016, dated 2022).

Test system: SLC16A11
Test: SLC16A11 protein-protein interaction study (immunoprecipitation, quantitative mass spectrometry)
Parameters: species or system human
Conditions: putative SLC16A11^REF interaction partners; immunoprecipitation from HEK293T cells vs empty vector control; Blandt-Altman
Excerpt: Alternatively, these variants may result in reduced transport because they disrupt protein-protein interactions responsible for correct SLC16A11 function. To explore this possibility, SLC16A11 was immunoprecipitated from HEK293T cells expressing either REF or T2D risk SLC16A11-V5 or empty vector control and quantitative mass spectrometry was used to define the SLC16A11 interactome.
Another mechanism through which the variants could affect activity is through disruption of protein-protein interactions. To explore this possibility, quantitative mass spectrometry-based protein-protein interaction studies were performed to define the SLC16A11 interactome and evaluate if the T2D risk coding variants alter any interactions.
Beads were then washed once with lysis buffer and three times with wash buffer. After the last wash, residual wash buffer was removed, 10 μL fresh wash buffer was added, and beads were stored at −80° C. until analysis by the Proteomics Platform at the Broad Institute, as detailed in the “Proteomics Methods for SLC16A11 Protein Interaction Studies” below.
The beads from immunopurification were washed once with IP lysis buffer, then three times with PBS, the three different lysates of each replicate were resuspended in 90 uL digestion buffer (2M Urea, 50 mM Tris HCl), 2 ug of sequencing grade trypsin added, 1 hour shaking at 700 rpm. The supernatant was removed and placed in a fresh tube. The beads were then washed twice with 50 uL digestion buffer and combined with the supernatant. The combined supernatants were reduced (2 uL 500 mM DTT, 30 minutes, RT), alkylated (4 uL 500 mM IAA, 45 minutes, dark) and a longer overnight digestion performed: 2 ug (4 uL) trypsin, shake o/n, The samples were then quenched with 20 uL 10% FA and desalted on 10 mg SepPak columns.
Desalted peptides were labelled with iTRAQ reagents according to the manufacturer's instructions (AB Sciex, Foster City, Calif.). Peptides were dissolved in 30 μl of 0.5 M TEAB pH 8.5 solution and labeling reagent was added in 70 ul of ethanol. After 1 h incubation the reaction was stopped with 50 mM Tris/HCl pH 7.5. Differentially labelled peptides were mixed and subsequently desalted on 10 mg SepPak columns.
Reconstituted peptides were separated on an online nanoflow EASY-nLC 1000 UHPLC system (Thermo Fisher Scientific) and analyzed on a benchtop Orbitrap Q Exactive Plus mass spectrometer (Thermo Fisher Scientific). The peptide samples were injected onto a capillary column (Picofrit with 10 μm tip opening/75 μm diameter, New Objective, PF360-75-10-N-5) packed in-house with 20 cm C18 silica material (1.9 μm ReproSil-Pur C18-AQ medium, Dr. Maisch GmbH, r119.aq). The UHPLC setup was connected with a custom-fit microadapting tee (360 μm, IDEX Health & Science, UH-753), and capillary columns were heated to 50° C. in column heater sleeves (Phoenix-ST) to reduce backpressure during UHPLC separation. Injected peptides were separated at a flow rate of 200 nL/min with a linear 80 min gradient from 100% solvent A (3% acetonitrile, 0.1% formic acid) to 30% solvent B (90% acetonitrile, 0.1% formic acid), followed by a linear 6 min gradient from 30% solvent B to 90% solvent B. Each sample was run for 120 min, including sample loading and column equilibration times. The Q Exactive instrument was operated in the data-dependent mode acquiring HCD MS/MS scans (R=17,500) after each MS1 scan (R=70,000) on the 12 top most abundant ions using an MS1 ion target of 3×10^6 ions and an MS2 target of 5×10^4 ions. The maximum ion time utilized for the MS/MS scans was 120 ms; the HCD-normalized collision energy was set to 27; the dynamic exclusion time was set to 20 s, and the peptide match and isotope exclusion functions were enabled.
All mass spectra were processed using the Spectrum Mill software package v6.0 pre-release (Agilent Technologies) which includes modules developed by us for iTRAQ-based quantification. […]

B1: PSMD12 (protein)
chain: ADGGSERADGRIVKMEVDYSATVDQRLPECAKLAKEGRLQEVIETLLSLEKQTRTASDMVSTSRILVAVVKMCYEAKEWDLLNENIMLLSKRRSQLKQAVAKMVQQCCTYVEEITDLPIKLRLIDTLRMVTEGKIYVEIERARLTKTLATIKEQNGDVKEAASILQELQVETYGSMEKKERVEFILEQMRLCLAVKDYIRTQIISKKINTKFFQEENTEKLKLKYYNLMIQLDQHEGSYLSICKHYRAIYDTPCIQAESEKWQQALKSVVLYVILAPFDNEQSDLVHRISGDKKLEEIPKYKDLLKLFTTMELMRWSTLVEDYGMELRKGSLESPATDVFGSTEEGEKRWKDLKNRVVEHNIRIMAKYYTRITMKRMAQLLDLSVDESEAFLSNLVVNKTIFAKVDRLAGIINFQRPKDPNNLLNDWSQKLNSLMSLVNKTTHLIAKEEMIHNLQ
For B1, the “BA log fold change” value was 1.18.

B2: LPCAT1 (protein)
chain: MRLRGCGPRAAPASSAGASDARLLAPPGRNPFVHELRLSALQKAQVALMTLTLFPVRLLVAAAMMLLAWPLALVASLGSAEKEPEQPPALWRKVVDFLLKAIMRTMWFAGGFHRVAVKGRQALPTEAAILTLAPHSSYFDAIPVTMTMSSIVMKAESRDIPIWGTLIQYIRPVFVSRSDQDSRRKTVEEIKRRAQSNGKWPQIMIFPEGTCTNRTCLITFKPGAFIPGAPVQPVVLRYPNKLDTITWTWQGPGALEILWLTLCQFHNQVEIEFLPVYSPSEEEKRNPALYASNVRRVMAEALGVSVTDYTFEDCQLALAEGQLRLPADTCLLEFARLVRGLGLKPEKLEKDLDRYSERARMKGGEKIGIAEFAASLEVPVSDLLEDMFSLFDESGSGEVDLRECVVALSVVCRPARTLDTIQLAFKMYGAQEDGSVGEGDLSCILKTALGVAELTVTDLFRAIDQEEKGKITFADFHRFAEMYPAFAEEYLYPDQTHFESCAETSPAPIPNGFCADFSPENSDAGRKPVRKKLD
In the case of B2, the “BA log fold change” value is reported as 1.16.

B3: TIMM23B (protein)
chain: MEGGGGSGDKTTGVLAGFFGAGEAGYSHADLAGVPLTGMNPLCPYLNVDPRYLVQDTDEFILPTGANKTWGRFELAFFTIGGCCMTGAAFGAMNGLRLGLKETQNMAWSKPGNVQILNMVTRQGALWANTLGSLALLYSAFGVIIEKTRGAEDDLNTVAAGTMTGMLYKCTVSEMALDSPFCVLLSGS
With B3 the “BA log fold change” value was 1.22.

B4: UBAC2 (protein)
chain: HCQKLFVYDLHAVKNDFQIWRLICGRIICLDLKDTFCSSLLIYNFRIFERRYGSRKFASFLLGSWVLSALFDFLLIEAMQYFFGITAASNLPSGFLAPVFALFVPFYCSIPRVQVAQILGPLSITNKTLIYILGLQLFTSGSYIWIVAISGLMSGLCYDSKMFQVHQVLCIPSWMAKFFSWTLEPIFSSSEPTSEARIGMGATLDIQRQQRMELLDRQLMFSQFAQGRRQRQQQGGMINWNRLFPPLRQRQNVNYQGGRQSEPAAPPLEVSEEQVARLMEMGFSRGDALEALRASNNDLNVATNFLLQH
In the case of B4, the “BA log fold change” value is reported as 1.21.

B5: SLC25A22 (protein)
chain: MADKQISLPAKLINGGIAGLIGVTCVFPIDLAKTRLQNQQNGQRVYTSMSDCLIKTVRSEGYFGMYRGAAVNLTLVTPEKAIKLAANDFFRHQLSKDGQKLTLLKEMLAGCGAGTCQVIVTTPMEMLKIQLQDAGRIAAQRKILAAQGQLSAQGGAQPSVEAPAAPRPTATQLTRDLLRSRGIAGLYKGLGATLLRDVPFSVVYFPLFANLNQLGRPASEEKSPFYVSFLAGCVAGSAAAVAVNPCDVVKTRLQSLQRGVNEDTYSGILDCARKILRHEGPSAFLKGAYCRALVIAPLFGIAQVVYFLGIAESLLGLLQDPQA
For B5, the “BA log fold change” value was 1.20.

B6: PPP6R3 (protein)
chain: MFWKFDLHSSSHIDTLLEREDVTLKELMDEEDVLQECKAQNRKLIEFLLKAECLEDLVSFIIEEPPQDMDEKIRYKYPNISCELLTSDVSQMNDRLGEDESLLMKLYSFLLNDSPLNPLLASFFSKVLSILISRKPEQIVDFLKKKHDFVDLIIKHIGTSAIMDLLLRLLTCIEPPQPRQDVLNWLNEEKIIQRLVEIVHPSQEEDRHSNASQSLCEIVRLSRDQMLQIQNSTEPDPLLATLEKQEIIEQLLSNIFHKEKNESAIVSAIQILLTLLETRRPTFEGHIEICPPGMSHSACSVNKSVLEAIRGRLGSFHELLLEPPKKSVMKTTWGVLDPPVGNTRLNVIRLISSLLQTNTSSINGDLMELNSIGVILNMFFKYTWNNFLHTQVEICIALILASPFENTENATITDQDSTGDNLLLKHLFQKCQLIERILEAWEMNEKKQAEGGRRHGYMGHLTRIANCIVHSTDKGPNSALVQQLIKDLPDEVRERWETFCTSSLGETNKRNTVDLVTTCHIHSSSDDEIDFKETGFSQDSSLQQAFSDYQMQQMTSNFIDQFGFNDEKFADQDDIGNVSFDRVSDINFTLNTNESGNIALFEACCKERIQQFDDGGSDEEDIWEEKHIAFTPESQRRSSSGSTDSEESTDSEEEDGAKQDLFEPSSANTEDKMEVDLSEPPNWSANFDVPMETTHGAPLDSVGSDVWSTEEPMPTKETGWASFSEFTSSLSTKDSLRSNSPVEMETSTEPMDPLTPSAAALAVQPEAAGSVAMEASSDGEEDAESTDKVTETVMNGGMKETLSLTVDAKTETAVFKRVLKSYREEGKLSTSQDAACKDAEECPETAEAKCAAPRPPSSSPEQRTGQPSAPGDTSVNGPV
In the case of B6, the “BA log fold change” value is reported as 1.18.

B7: AGPAT6 (protein)
chain: VSFGIRKLYMKSLLKIFAWATLRMERGAKEKNHQLYKPYTNGIIAKDPTSLEEEIKEIRRSGSSKALDNTPEFELSDIFYFCRKGMETIMDDEVTKRFSAEELESWNLLSRTNYNFQYISLRLTVLWGLGVLIRYCFLLPLRIALAFTGISLLVVGTTVVGYLPNGRFKEFMSKHVHLMCYRICVRALTAIITYHDRENRPRNGGICVANHTSPIDVIILASDGYYAMVGQVHGGLMGVIQRAMVKACPHVWFERSEVKDRHLVAKRLTEHVQDKSKLPILIFPEGTCINNTSVMMFKKGSFEIGATVYPVAIKYDPQFGDAFWNSSKYGMVTYLLRMMTSWAIVCSVWYLPPMTREADEDAVQFANRVKSAIARQGGLVDLLWDGGLKREKVKDTFKEEQQKLYSKMIVGNHKDRSRS
For B7, the “BA log fold change” value was 1.16.

B8: FAF2 (protein)
chain: AAPEERDLTQEQTEKLLQFQDLTGIESMDQCRHTLEQHNWNIEAAVQDRLNEQEGVPSVFNPPPSRPLQVNTADHRIYSYVVSRPQPRGLLGWGYYLIMLPFRFTYYTILDIFRFALRFIRPDPRSRVTDPVGDIVSFMHSFEEKYGRAHPVFYQGTYSQALNDAKRELRFLLVYLHGDDHQDSDEFCRNTLCAPEVISLINTRMLFWACSTNKPEGYRVSQALRENTYPFLAMIMLKDRRMTVVGRLEGLIQPDDLINQLTFIMDANQTYLVSERLEREERNQTQVLRQQQDEAYLASLRADQEKERKKREERERKRRKEEEVQQQKLAEERRRQNLQEEKERKLECLPPEPSPDDPESVKIIFKLPNDSRVERRFHFSQSLTVIHDFLFSLKESPEKFQIEANFPRRVLPCIPSEEWPNPPTLQEAGLSHTEVLFVQDLTDE
In the case of B8, the “BA log fold change” value is reported as 1.23.
